{
  "source": "patent US20250009856A1",
  "about": "“METHODS FOR TREATING RESPIRATORY DISEASES” (MUCPharm Pty Ltd, priority 2021, published 2025)",
  "key": {"[1]": {"tested_on": "New Zealand white rabbits", "experiment": "Pilot study: safety of inhaled bromelain in rabbits", "settings": "rabbit, in vivo", "excerpt": "In this pilot study. […] Ten minutes waiting period was kept between Salbutamol administration and treatment. Each rabbit received one cumulative dose of bromelain using a nebulizer and a v-gel supraglottal airway device as below. The pilot study was divided into 2 experiments as follows:\nExperiment 1: Two rabbits were used in the first bromelain aerosol administration experiment. The first rabbit received an aerosol of physiological saline solution (0.9% NaCl), the second rabbit received aerosolized bromelain 0.1 mg/mL (accumulative dose of 0.19 mg in 1.9 mL saline), over 16 min inhalation period (Table 1).\nExperiment 2: Three rabbits were used in the second bromelain aerosol administration experiment. The first rabbit received an aerosol of physiological saline solution (0.9% NaCl), the second one received aerosolized low dose of bromelain 0.01 mg/mL (accumulative dose of 0.025 mg bromelain in 2.5 mL saline), the third rabbit received aerosolized high dose of bromelain 0.1 mg/mL (accumulative dose of 0.25 mg bromelain in 2.5 mL saline), over 11 min inhalation period.\nRabbits were euthanized 48 h post-treatment using IV Sodium pentobarbitone 100 mg/kg while animals were sedated using isoflurane."}, "[2]": {"experiment": "Dynamic viscosity after mixing with BromAc, DNase and combinations", "settings": "for Dynamic viscosity (¥): heads: BR(25 ug/ml), NAC(20 mg/ml), BR(250 ug/ml) + NAC(20 ug/ml)", "experimental": "(§1) Artificial sputa was prepared following methodology with ingredients as in earlier experiments. To 1.5 ml of artificial sputa in a vial was added 0.5 ml of reagent containing the required bromelain, NAC, DNase and their combinations. Control vials included 0.5 ml of PBS only. The mixture was vortex mixed and incubated in a shaker water bath at 37 deg C. At the end of 1 hour, the samples were retrieved, vortex mixed and equilibrated to ambient room temperature before measuring dynamic viscosity and pipette flow.\n(§2) Dynamic viscosity was determined using the capillary tube method as in earlier experiments, whilst the pipette flow was evaluated using a 0.5 ml pipette inclined at 60 deg angle. The pipette flow was calculated as shown below."}, "[3]": {"experiment": "Sputum flow speed after mixing with BromAc, DNase and combinations", "settings": "BR 250 ug/ml, NAC 20 mg/ml where present, 1 hour, 37 deg C", "experimental": "as §1, §2\nPipette flow (€)=0.45 ml sputa/time to empty (sec)."}},
  "data": [
    {"molecule": "Bromelain", "values": [
      {"measurement": "activities, food and drink intake, breathing", "setting": "[1]", "result": "normal"}
    ]},
    {"molecule": "DNASE: enzyme hydrolysing phosphodiester bonds of dsDNA; marketed under the brand name Pulmozyme for cystic fibrosis sputa (protein, UniProt P24855 23-282, looked up) Deoxyribonuclease-1: LKIAAFNIQTFGETKMSNATLVSYIVQILSRYDIALVQEVRDSHLTAVGKLLDNLNQDAPDTYHYVVSEPLGRNSYKERYLFVYRPDQVSAVDSYYYDDGCEPCGNDTFNREPAIVRFFSRFTEVREFAIVPLHAAPGDAVAEIDALYDVYLDVQEKWGLEDVMLMGDFNAGCSYVRPSQWSSIRLWTSPTFQWLIPDSADTTATPTHCAYDRIVVAGMLLRGAVVPDSALPFNFQAAYGLSDQLAQAISDHYPVEVMLK", "values": [
      {"measurement": "effect on dynamic viscosity compared with other treatment groups", "setting": "[2]; DNase 2-20 μg/ml", "result": "less compared to all the other treatment groups"},
      {"measurement": "Dynamic viscosity (¥)", "setting": "[2]; plus DNASE 2.0 ug/ml", "result": 1.64, "unit": "cSt"},
      {"measurement": "Dynamic viscosity (¥)", "setting": "[2]; plus DNASE 4.0 ug/ml", "result": 1.60, "unit": "cSt"},
      {"measurement": "Dynamic viscosity (¥)", "setting": "[2]; plus DNASE 6.0 ug/ml", "result": 1.57, "unit": "cSt"},
      {"measurement": "Dynamic viscosity (¥)", "setting": "[2]; plus DNASE 8.0 ug/ml", "result": 1.514, "unit": "cSt"},
      {"measurement": "Dynamic viscosity (¥)", "setting": "[2]; plus DNASE 20 ug/ml", "result": 1.379, "unit": "cSt"},
      {"measurement": "Dynamic viscosity (¥)", "setting": "[2]; plus DNASE 10. ug/ml", "result": 1.472, "unit": "cSt"},
      {"measurement": "Sputum flow speed (€)", "setting": "[3]; plus DNASE 2.0 ug/ml", "result": 0.0627, "unit": "mL/s"},
      {"measurement": "Sputum flow speed (€)", "setting": "[3]; plus DNASE 4.0 ug/ml", "result": 0.075, "unit": "mL/s"},
      {"measurement": "Sputum flow speed (€)", "setting": "[3]; plus DNASE 6.0 ug/ml", "result": 0.082, "unit": "mL/s"},
      {"measurement": "Sputum flow speed (€)", "setting": "[3]; plus DNASE 8.0 ug/ml", "result": 0.09, "unit": "mL/s"},
      {"measurement": "Sputum flow speed (€)", "setting": "[3]; plus DNASE 20 ug/ml", "result": 0.1125, "unit": "mL/s"},
      {"measurement": "Sputum flow speed (€)", "setting": "[3]; plus DNASE 10. ug/ml", "result": 0.1044, "unit": "mL/s"}
    ]}
  ]
}
